Measurements as given in paper PMC11441684, “A suboptimal OCT4-SOX2 binding site facilitates the naïve-state specific function of a Klf4 enhancer”.

Tests used:
[1] = molecular target: OCT4;SOX2 (human;human, UniProt Q01860;P48431 1-360;1-317, |); test: EMSA; 19 nM OCT4, 16 nM SOX2; high occupancy; 12.5 mM K-Hepes pH 7.6, 50 mM NaCl, 1 mM MgCl2, 10% glycerol, 0.1% NP-40, 0.1 mg/mL BSA, 1 mM DTT, 1 ug/uL poly dG:dC, 2 nM probe, 30 C 15 min; 4% acrylamide gel, 0.5X TGE; settings: protein: recombinant;recombinant; tags: 6xHis (pSKB3-6H-TEV);6xHis (pSKB3-6H-TEV); copies: 1;1; label: Cy5 on strand 2 (extended primer S1); blunt
[2] = molecular target: OCT4 (human, UniProt Q01860 1-360); test: EMSA; 19 nM OCT4; OCT4-only band is the majority of shifted DNA in the OCT4 + SOX2 reaction; 12.5 mM K-Hepes pH 7.6, 50 mM NaCl, 1 mM MgCl2, 10% glycerol, 0.1% NP-40, 0.1 mg/mL BSA, 1 mM DTT, 1 ug/uL poly dG:dC, 2 nM probe, 30 C 15 min; 4% acrylamide gel, 0.5X TGE; settings: protein: recombinant; tags: 6xHis (pSKB3-6H-TEV); label: Cy5 on strand 2 (extended primer S1); blunt
OCT4, sequence (Q01860 whole entry): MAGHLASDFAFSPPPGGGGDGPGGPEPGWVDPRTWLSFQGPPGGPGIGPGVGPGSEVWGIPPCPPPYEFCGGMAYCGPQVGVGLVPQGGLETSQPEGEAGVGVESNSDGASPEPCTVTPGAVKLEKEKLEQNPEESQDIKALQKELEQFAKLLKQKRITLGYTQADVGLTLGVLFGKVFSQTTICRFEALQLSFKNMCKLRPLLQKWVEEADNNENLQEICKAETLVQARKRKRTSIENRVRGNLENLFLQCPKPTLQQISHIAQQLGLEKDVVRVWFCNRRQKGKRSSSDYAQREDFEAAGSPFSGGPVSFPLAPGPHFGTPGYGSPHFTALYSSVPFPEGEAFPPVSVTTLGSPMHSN

OCT4;SOX2, sequence (Q01860 whole entry, chain 1 of 2): as the sequence (Q01860 whole entry) above
OCT4;SOX2, sequence (P48431 whole entry, chain 2 of 2): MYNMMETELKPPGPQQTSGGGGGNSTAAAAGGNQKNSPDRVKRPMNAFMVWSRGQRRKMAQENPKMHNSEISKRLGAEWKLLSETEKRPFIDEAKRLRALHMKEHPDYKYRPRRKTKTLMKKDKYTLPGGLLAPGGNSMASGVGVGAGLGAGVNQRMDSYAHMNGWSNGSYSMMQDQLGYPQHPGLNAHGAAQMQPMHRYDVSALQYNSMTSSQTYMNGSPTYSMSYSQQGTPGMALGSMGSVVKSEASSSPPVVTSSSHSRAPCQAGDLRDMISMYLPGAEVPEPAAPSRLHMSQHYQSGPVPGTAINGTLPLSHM

B1: Nanog OS site probe (dsDNA)
DNA 1: GTTACTCTGCAGCTACTTTTGCATTACAATGGCCTTGGTGAGACTGG
DNA 2: CCAGTCTCACCAAGGCCATTGTAATGCAAAAGTAGCTGCAGAGTAAC
Question: Does B1 bind [1]?
Answer: Result: binds

B2: Klf4-E1 OS site probe (dsDNA)
DNA 1: GTTACTCTGCAGCTACCTTTGCATATCAAATGCCTTGGTGAGACTGG
DNA 2: CCAGTCTCACCAAGGCATTTGATATGCAAAGGTAGCTGCAGAGTAAC
Question: Does B2 bind [2]?
Answer: Result: binds
